Data from the domain aggregation screens of Martell et al. (2025).

Assay: soluble fraction after stress (log2 fold change); higher = more stays soluble; pooled small domains, quantitative proteomics
Conditions: stress: pH 4
Procedure, shortened: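 After pH 4 stress, pooled custom libraries of small protein domains were quantified with high-throughput quantitative proteomics. Aggregation propensity is taken from the fold change in each domain's soluble amount following the acid stress. The scale is log2, where higher values mean more stayed soluble.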

Compared with “HMTLYQIGDKVVHPMHGAGVIDSVVQRKVSGQVQEFYLLKLSVGNMVVMVPTDNTGEIGMRP”, “HMERAYGVRVSLRLDDPFRTLLGADWSRTHWFASAEERDAALLEMSRKHEFSRPGDQPALVYEKVQN” is higher in “soluble fraction (log2)” value: -0.777 for the first, -0.471 for the second.

Compared with “HMSSWEDNFSYWIRNVAETLDKDLLNVANSKLEKIIINAALDQTNGKKNEAAILLGLGRNTLAKKIKELG”, “HMAVVEVATTTATEYKVEKGHHFKVGDFVMFKTGAKSYAITAIDTTSPIFDKITVGTTLGEAIPVGGTLM” is lower in “soluble fraction (log2)” value: -0.929 for the first, -1.45 for the second.

Going from “HMYGHKLDSYESYVVSELRRWPFLSAPQIHDRLKEHFSDLPLVTPKTVFNFVNRLRLTHSLPKE” to “HMKELFETLPDVLDAKLLASALSISKAGAYQLLNRPDFPTLQVGGWKLVTKQKLALWMEQHTN”, the “soluble fraction (log2)” value falls from -0.215 to -0.511.

Going from “HMSQNTHTIPSREDILGIFRSVNAPLDPQSLGKTLQVHADSMDVLVRRLKAMERDGQLKSDASGVFSLAD” to “HMAKETLRANIKDYIQKQIASGVYRPGDRIVETQLAREMNVSQAPVREAILELVSLGLLEERPYSGHMVRQ”, the “soluble fraction (log2)” value falls from 0.314 to -0.843.

First: HMYKLTTQRRAILDVIIENHDKHLNPEEIYDIVKEKYPEIGIATVYRTLQLLEKLNIIYRLNFDDGYNRYE
Second: HMQFEIGDTVRVHVNIREGERERVQMFEGTVIAKRGSGVSETFTVRRVSYGVGVERVFPVNSPNV
The “soluble fraction (log2)” value of the first is lower: -1.12 for the first, 0.22 for the second.

First: HMNMFGIQRRNHLLSLLQEKKSITVQEAAVIFEVAEETIRRDFRTMEGQGLIVRTHGGALLADD
Second: HMDETFTITFDPNGGTLNGSKTKTVSLGDIVYGKLPTASKTGYSFIGWFTEKEGGEQISSATKIIASDLTL
The “soluble fraction (log2)” value of the first is lower: -1.14 for the first, -0.204 for the second.

Compared with “HMSMRILNHTVVKILKRYRIATDEQLQPLLDEAERSGRSLQDVVLDAKLVSETELTKLFADYAD”, “HMSKEKQILQLLQHGYSQRRIADTLSVSRNTVAKVAKAAIEHPVSSDSLDSIDELELHQKLFPEEVLI” is lower in “soluble fraction (log2)” value: 0.421 for the first, -0.184 for the second.

Compared with “HMDNIGKTLGQNQTRQYKVAYAEAAKLPAIIMGLVPLPKPPVVDERLRSLYVTATPEQHRQIETLMNRI”, “HMTIDTSNDLLNQITEATSKGPISILELKDQLNVNASDIEGELRTLIDQHLVFLKDGMLQVIPFD” is higher in “soluble fraction (log2)” value: -0.64 for the first, -0.423 for the second.

First: HMERPYNGKQMEYHEGGVEKKETLFVEGGLSRVIQWDESGQKRSEVNISPTGVRREQYWDSSGKAIAKPS
Second: HMRRGPLTPDDFVLDMRVVHPRYGVGRIVALSGSGESRKATVDFGGSIGRMKFVLSQSPLKP
The “soluble fraction (log2)” value of the first is lower: 0.0672 for the first, at least 0.43 for the second.

“HMNNPNFAIQKYVTGSDIKRVRKTLRLTQKKFAELVGVSKATMERWETKEDKITGPVVLLLKILEDHPEY” and “HMLFRGNGFNTLYDKQLRITQQGEFKDGRLWDGKYYRYSKAGELVRIEIYEQGRYAGNGVITDEDKA” are within 0.2 log units of each other in “soluble fraction (log2)” value: -0.0904 for the first, -0.0519 for the second.

“HMRHKSNRRLTAAHQIEQQIQKLLMENTMEAKELKESLNFAAKDIDTVLSWLVDKDKVRINAINQYYWT” and “HMDNFQFIGYSQQQGQIAVAWIKSLDNGRLVRVEVSDSLEGWRVSDISAQGVNLTKGQQWLMLKRL” are within 0.2 log units of each other in “soluble fraction (log2)” value: -1.28 for the first, -1.37 for the second.

“HMTKVIEFLVSDEEHGVRADKAFVSHNQKLSRSYFKKLILNGNLYINNKVNLDPSYKLIKGSTVRIILPE” and “HMPEMHIYTKEGKIHITHIDENEEIKIYNPLGQIIYTGSPQDIPVLEGKGLYIIYIGKSAVEVLES” are within 0.2 log units of each other in “soluble fraction (log2)” value: -0.698 for the first, -0.624 for the second.

Going from “HMAKYEVVAKDIISRIKQNEFETTLKLPTEDEMIEYYQVSRNTVRSALKLLTSQGIIFSRQGSGFYIRQRS” to “HMQKRDQKKRANMLDSLKVGTRIVTIGGIFGEIAKIKDDRIRIKVAEDVEIWIRRAAVGTVIT”, the “soluble fraction (log2)” value rises from -0.117 to at least 0.43.

First: HMIDIDTILKKYKPGRRDELIPLMQEIQEVYGHLSEEAVVKIGTYVGLSTTKIYGLATFYDQFRF
Second: HMLQEFTLELATAVVQEFRDQPGALINALHKLQETFGYVDEAAMPVLARLFNLSRAEVHGVASFYHDFRRS
The “soluble fraction (log2)” value of the first is higher: -0.874 for the first, -1.35 for the second.

First: HMQDSIYYAQYRINIRNMPSSEGMVISRASVGEALEVLDWQEQWSKVRKQSGVEGYVASRLLTK
Second: HMVSNRMVYSDFQQKWINNQVESINVNADKMTIEVTTQDEKKYTVYAPSSMIEFLNEQYPKDDIKIEYVAP
The “soluble fraction (log2)” value of the first is higher: -0.64 for the first, -0.94 for the second.

“HMDDATDLPYQEFRTQVSDGQVKIAQFNNNTGKITFESISGDKFKTSGPLELSSDDERLFLENIEDFKFFT” and “HMSSFFLIDVSQVRIGMYIQLDVGWMRHPFPVNSFRITNQEQLDTLRSLNLAQVRWSPAKSDL” are within 0.2 log units of each other in “soluble fraction (log2)” value: -1.1 for the first, -1 for the second.

Compared with “HMTFTQFAESHGVIIKSLKASDKIQRGPTVAHPKSDNGAWLWDGNRGGVMAWDGDGQWYWFK”, “HMNPTTDFFKLEGIDATRILVFDQVGRQVAQFSQPAQQMDIQALPAGVYALRIENADGQVYSARIVK” is lower in “soluble fraction (log2)” value: -0.108 for the first, -0.773 for the second.

First: HMDIEFSDELRTFIDEWSKKEGGLVMMLHRIQNEYGFIPRTAAEKLSLISGIPLARIYGVITFYHFFKT
Second: HMPENESPEEKHARFRRFAEGLMARLDENESVRDILPELKVWLDDRELDRDDQRLARNLMLTAGKRE
The “soluble fraction (log2)” value of the first is lower: -1.01 for the first, -0.0664 for the second.

Going from “HMLLKIRPDLDGNEIMKLLNIAAGPNVGKAYEHLLELRLEHGPLGKERAEQELMNWWSARSQ” to “HMHGESIPIPNILHKRYADAEQIVNNLRLEIEVTDTGYVRSLPPGAILEQTPGPGERVKSGHIIYVTINAA”, the “soluble fraction (log2)” value rises from -0.371 to -0.0135.

Going from “HMTVADMQQKANVKRRNSNSHEAILDATVKLLGSSGYIDFSIEKVASQAGVGKQTIYRWWPSRADLVLEVW” to “HMVLAEPLSERELDILRLLAAGDSNKEIAAVLYITEGTVKNHVTNILGKLDARDRTQAALRARELGL”, the “soluble fraction (log2)” value falls from 0.223 to -0.373.

First: HMQPYTYNPNFLSDYRAYSLGIPLEAYDKLVQFRASGSFVNSMSDFQKITGVSDSLLAVLHSKFRYPK
Second: HMKKTETVRFTTNVTHGTKIKETDVEVVKISNSALPDKVVKNKTEVIGKYATADLFKGDFATENKVTD
The “soluble fraction (log2)” value of the first is lower: -0.602 for the first, 0.192 for the second.

Going from “HMRRPRGVFNLVPRGFKRFGFITPDGGGEDMFAHLENVRAGHVVEDRNAVEYGIGRGPDGRDQAVDIVPVP” to “HMGNLIIFYDEGIGSGPLMKAVNDSGVSLVYEYKNLHGIAIRPSAKTNIQDAIAYFQKVNGVLSVEQ”, the “soluble fraction (log2)” value falls from -0.112 to -0.65.

Going from “HMLDQSYYETANEIISRYPLEEKSLIPIIQDIQATYRYLPPDLLDYVAKKIGITETKAYSVASFYENFSF” to “HMDTVEFPVQVNGKVRGKITVAADAGKDAIETAALADEKVLAFLDGATPKKVIVVPGKLVNLVVQPG”, the “soluble fraction (log2)” value rises from -1.09 to at least 0.43.

Going from “HMNLVRQHTDYAFRLLVALSQAPGKPISTRTLASAADVPYQFASKIMQKLHEEGLVESVMGPFGGFRLVQ” to “HMDDSPTARALRTLDLIHNRPGITAAELADRLGVTERAVRRYVLTLRDAGVPVLGTPGRYGGYQVGK”, the “soluble fraction (log2)” value rises from -0.419 to -0.0455.

Going from “HMKIVQHQLQLPVHVAGKFKGMFYKSDFVMSEDYDDDGNMILAVRLPLVDWNKFLKRTDNELSQYIKVTP” to “HMDSADADLLRRIEDLLSSRRSVIREARLADMLGVPRDQVARALDLLQERGVIGLTTDSGMKRIAFRRN”, the “soluble fraction (log2)” value rises from -1.53 to 0.111.

First: HMSFSTHHEYYIYNLAVDMRKGYDGLSGLVVNELGRQPWDGSVYVFFNTMRDKVKLLVWDTDGYVIYSKR
Second: HMTYYEGYYRKNQKGFGFVIVDGRDEDIYIDAKNMNGALNNDLVVVEELKGQNGKKTEGRVVKVLKKE
The “soluble fraction (log2)” value of the first is lower: -0.505 for the first, -0.284 for the second.

“HMDISRMNLSQTERAVLSVLDSQPLHTEEIIASADLRAGAIHSALISLQLKGLIKQLPGNLYVK” and “HMKKALTAEQEARVRELYFRGINYYSANRYQDAIAEWRKVLAIDPNHEKAKNNIRQTLILLK” are within 0.2 log units of each other in “soluble fraction (log2)” value: -0.035 for the first, -0.123 for the second.

“HMQPIAVHIGTENPMKSLSDLSVVRAQFTSGGRVIGSVAVLGPTRMQYSRIVGMMRFMQQRLDLLLKG” and “HMAPIEVPYNVFRQQVVEGNVESVATRADTVQGYFETPVTLPARPDAAAAEPVTVERFSTTLPSF” are within 0.2 log units of each other in “soluble fraction (log2)” value: -0.0772 for the first, 0.00217 for the second.

Going from “HMNFSKEYILVHSYKEIDILDALIVKYEATLVNREFDLFINSYIKINEDYAKLFRDEIISKTSGSMSIKEL” to “HMPSPEMLKETEKRKAEEIYRSQINLFIDDYHRLKGQYPLLEDIIDNKKDSIPIEILREISISILKNYFE”, the “soluble fraction (log2)” value rises from -2.12 to -0.926.

Compared with “HMDIDLNTIKKITLDDIHAFLSYLTTTYHSKAATRARKASSIRVFFNYLSAKANLIEVNPAQNLETPKLD”, “HMVKDYIQVTVNKEPVILKGKKDYIFIDIFNYIEFDLTIPKGSLYLLLNGKNAGYHDKLLDGDVIELGW” is lower in “soluble fraction (log2)” value: 0.0886 for the first, -1.63 for the second.

Going from “HMLKLYILTDGKNYVMDDPIHPGRVMYSTSPVNAKKFTFKQARALLNNKSKKLSWIRSFNMVDDSSGEKI” to “HMFQPEQISKLNELETLVLDFIIKSPDKVQKATIRSLATQLHVSTTTIVRMSTKLGFNGWSELKFFLKNQS”, the “soluble fraction (log2)” value falls from 0.417 to -0.65.

“HMPPSQRVNRILSLAGITSRRKADEYILEGRVTVNGEVLKEPGAKAVWGTDDIRVDGKPIPALS” and “HMDKQGGWLTMAEAAEKLGVTHHVIRRLIKEKILPAEQVMRHAPHQIRIVDLESDAVAEALRHR” are within 0.2 log units of each other in “soluble fraction (log2)” value: 0.275 for the first, 0.155 for the second.

First: HMFNIIARQEIDEILYEYKIENSEDYKNRDPEELAEIYENIKTVQENHDLSDDDVEELLKSIFSDY
Second: HMVRKIRARLVLQLRAEGLSGRAIAGSQGMSRKSVTAVLDAADRAGIGWDEIAERSEGEVYALLFPGRG
The “soluble fraction (log2)” value of the first is lower: -2.2 for the first, -1.18 for the second.

Compared with “HMRTKLEEAVEWLQEQLNDGPVLSKELESEAKAADILPGTLRRAGEALGVVKQKQGGRGGWTWSLPR”, “HMTPDDSYIAGYAAGILKHQFLIDAPELIVRNGTITIPADKVSAGDRAKVVQILSGIPGVTRVEVG” is lower in “soluble fraction (log2)” value: at least 0.43 for the first, 0.368 for the second.

“HMDIEELLSRSTDRLSRQTEIRRLLADAQGRPNISSLARRFKVARRTVIRDLQELIRRGEVPPEIYPK” and “HMQISDTASIQEIAKEIIKSNPKAVEDYKKGKENALQFLVGQLMTKTKGTVHPGAARTILGDILK” are within 0.2 log units of each other in “soluble fraction (log2)” value: -0.0624 for the first, -0.205 for the second.

“HMIPLSDEETILLKLLEATETHLDALIRGSQLSAAKVSVVLMGMEMKRLVKRLPGQMYQRWD” and “HMSRVKQERLNRFVEAFEAYFRSVHPGEIDVEYLKSDEFGDIFESILHRVMHTASEEKMHRFKKILLNEM” are within 0.2 log units of each other in “soluble fraction (log2)” value: -1.55 for the first, -1.39 for the second.

Compared with “HMDKNNLHSVLQDVPGIGPKRMKELMRAFGSVEGMKKAGLEELAAVKGMNHKAAEALIQFFR”, “HMDVPVEVFMERIVTALREGRKTTFSELMEGKPERGKVIGTFLALLQLSKGQQIQIHQEQRTGEISIEGGA” is lower in “soluble fraction (log2)” value: 0.297 for the first, -1.03 for the second.

In the case of “HMIQIGEQIRYYRTKIGISQEALALMADINPAYIGQIERGIKSPTVNTIKKIANAMGINLHTLFT”, the “soluble fraction (log2)” value is reported as -0.434.
